Holding throughout (experiment): SPR
On the technique in general: SPR reads the build-up and loss of mass on a sensor chip optically.

One assay addresses CHI-1P.
In assay [1] the target is CHI-1R (not stated | Rhipicephallus pulchellus (zebra tick or yellow back tick)).
In a further assay the target is CHI-P1.
In assay [2] the target is CHI-R1 (Rhipicephallus pulchellus (zebra tick or yellow back tick) | not stated).
For assay [3], the target named is EVA-RPU02 (Rhipicephallus pulchellus (zebra tick or yellow back tick)).
Assay [4] addresses CHI-PR (not stated | Rhipicephallus pulchellus (zebra tick or yellow back tick)).
Another assay addresses T1, EVA-P974, A0A023.
T1 chain: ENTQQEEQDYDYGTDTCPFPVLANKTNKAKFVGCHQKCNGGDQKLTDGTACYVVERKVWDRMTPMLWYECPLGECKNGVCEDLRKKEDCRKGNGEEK
Particulars: remark: other sources report otherwise.

The target of another assay is T2, EVA-4, P0C8E9.
T2 chain: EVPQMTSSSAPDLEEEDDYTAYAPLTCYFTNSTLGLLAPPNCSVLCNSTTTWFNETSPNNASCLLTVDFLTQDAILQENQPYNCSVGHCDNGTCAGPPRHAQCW
The conditions noted are these: remark: other sources report otherwise.

We go through 8 molecules from PMC9478924.

B1: CCL1 (ligand)
chain: KSMQVPFSRCCFSFAEQEIPLRAILCYRNTSSICSNEGLIFKLKRGKEACALDTVGWVQRHRKMLRHCPSKRK
For orientation: Kd means the free concentration of one partner at which half of the binding sites on the other are occupied at equilibrium, for simple one-to-one binding. Read a high Kd as a looser complex. Turning to B1, the dissociation constant (Kd) in the assay with CHI-1P stood at 191 nM.

B2: CCL14 (ligand)
chain: TKTESSSRGPYHPSECCFTYTTYKIPRQRIMDYYETNSQCSKPGIVFITKRGHSVCTNPSDKWVQDYIKDMKEN
What is called koff is the rate constant with which the complex falls apart. The kon is a measure of how fast the partners come together. For B2, the Kd with CHI-1P was 149 nM; in assay [1], 60 nM; with CHI-P1, 79 nM; in assay [2], 134 nM; in assay [3], 32.4 nM. In assay [3], this molecule displayed a koff of 0.024 s⁻¹. In addition, the kon in assay [3] came out at 580000 M⁻¹ s⁻¹.

B3: CCL16 (ligand)
chain: QPKVPEWVNTPSTCCLKYYEKVLPRRLVVGYRKALNCHLPAIIFVTKRNREVCTNPNDDWVQEYIKDPNLPLLPTRNLSTVKIITAKNGQPQLLNSQ
As to B3, the Kd was 182 nM with CHI-1P and > 500 nM in assay [1].

B4: CCL18 (ligand)
chain: AQVGTNKELCCLVYTSWQIPQKFIVDYSETSPQCPKPGVILLTKRGRQICADPNKKWVQKYISDLKLNA
For B4, the equilibrium dissociation constant (Kd) with CHI-1P was 206 nM; in assay [1], > 500 nM; in assay [4], 315 nM; in assay [3], 651 nM. This molecule also registered a koff in assay [3] of 0.35 s⁻¹. The kon in assay [3] was 490000 M⁻¹ s⁻¹.

B5: CCL15 (ligand)
chain: QFTNDAETELMMSKLPLENPVVLNSFHFAADCCTSYISQSIPCSLMKSYFETSSECSKPGVIFLTKKGRQVCAKPSGPGVQDCMKKLKPYSI
In assay [3], B5 had a Kd of 503 nM, a koff of 0.069 s⁻¹ and a kon of 140000 M⁻¹ s⁻¹.

B6: CCL15, Q16663 22-113 (ligand)
chain: QFTNDAETELMMSKLPLENPVVLNSFHFAADCCTSYISQSIPCSLMKSYFETSSECSKPGVIFLTKKGRQVCAKPSGPGVQDCMKKLKPYSI
modifications: here or on the partner: biotin on the Avi-tag (Bir-A ligase)
The molecule B6 gave a dissociation constant (Kd) with EVA-P974, A0A023 of 299 nM.

B7: CCL22 (ligand)
chain: GPYGANMEDSVCCRDYVRYRLPLRVVKHFYWTSDSCPRPGVVLLTFRDKEICADPRVPWVKMILNKLSQ
Regarding B7, the equilibrium dissociation constant (Kd) was 25 nM with CHI-1P and > 500 nM in assay [1].

B8: CCL4, P13236 24-92 (ligand)
chain: APMGSDPPTACCFSYTARKLPRNFVVDYYETSSLCSQPAVVFQTKRSKQVCADPSESWVQEYVYDLELN
modifications: here or on the partner: biotin on the Avi-tag (Bir-A ligase)
B8 yielded a Kd in the assay with EVA-4, P0C8E9 of 158 nM.
